Data taken from patent US11339383B2, “G proteins” (HEPTARES THERAPEUTICS LIMITED, priority 2016, dated 2022).
Numbering of substitutions follows the chain as printed. Numbers in names are those of the source.

Assays:
[1] = Thermostability of GDP-bound mini G proteins by differential scanning fluorimetry (DSF); format: physicochemical; settings: for Stability measured by DSF: mini-G protein alone, GDP-bound; for Mini Gs basal Tm (GDP-bound state, DSF): 1 mM GDP, SYPRO-orange, no receptor
Method: SYPRO-orange (15 μl) was added from a 20× stock solution to give a final concentration of 2×. Samples were mixed and 2×50 μl aliquots (duplicates) were transferred to 0.2 ml PCR tubes (Qiagen). Thermostability measurements were performed using a Rotor-Gene Q (Qiagen). Samples were equilibrated for 90 s at 25° C. before ramping from 25 to 99° C. at 4 s/° C. The melting temperature (Tm), corresponding to the inflection point of the curve, was derived from analysis using the Rotor-Gene Q software. Tm values were calculated as the mean±SEM from three independent experiments.
(§1) For constructs see FIGS. 29 and 35-37. Expression, purification and stability measurements by differential scanning fluorimetry (DSF) of the mini-G proteins as well as the non-lipidated Gβ1γ2 dimer, were performed following the protocols described in Example 1. The stability of mini-G proteins was also determined in detergent using native DSF (NanoTemper Prometheus). Mini-G proteins (2 mg/ml) in 50 mM HEPES pH 7.5 (KOH), 20 mM MgCl2, 50 mM NaCl, 1 μM GDP were mixed with either no detergent (control), 0.1% LMNG or 0.1% DDM. Samples were incubated on ice (minimum 30 min) prior to heating on the Prometheus (20% excitation, 15° C.-85° C., rate of 2.0° C./min) and the onset of scattering determined.

[2] = Stability of mini-G proteins in detergent by native DSF; format: physicochemical; settings: 2 mg/ml, onset of scattering
Method: as §1

B1: Mini-Golf6: mini-G protein of Golf, 7 point mutations and 3 deletions from mini-Gs; SEQ ID NO:105 (protein)
chain: MGHHHHHHENLYFQGIEKQLQKERLAYKATHRLLLLGADNSGKSTIVKQMRILHGGSGGSGGTSGIFETRFQVDKVNFHMFDVGGQRDERRKWIQCFNDVTAIIYVADCSDYNRLRESLDDFESIWNNRWLRTISIILFLNKQDMLAEKVLAGKSKIEDYFPEYANYTVPEDATPDAGEDPKVTRAKFFIRDLFLRISTATGDGKHYCYPHFTCAVDTENARRIFNDCRDIIQRMHLKQYELL
modifications: Mini-Golf6
[1]; listed as Golf 6
  Stability measured by DSF: 64.8 ± 0.4 °C
[1]; listed as mini-Golf
  Stability measured by DSF: 65 °C
[2]
  Stability in detergent measured by native DSF, 0.1% DDM: 37.4 ± 0.2 °C
  Stability in detergent measured by native DSF, 0.1% LMNG: 41.9 ± 0.0 °C
  Stability in detergent measured by native DSF, No detergent: 44.3 ± 0.1 °C

B2: Mini-Go112: mini-G protein of Go1, construct 12; SEQ ID NO:113 (protein)
chain: MGHHHHHHENLYFQGIEKNLKEDGISAAKDVKLLLLGADNSGKSTIVKQMKIIHGGSGGSGGTTGIVETHFTFKNLHFRLFDVGGQRSERKKWIHCFEDVTAIIFCVDLSDYNRMHESLMDFDSICNNKFFIDTSIILFLNKKDLFGEKIKKSPLTICFPEYTGPNTYEDAAAYIQAQFESKNRSPNKEIYCHMTCATDTNNAQVIFDAVTDIIIANNLRGCGLY
modifications: Mini-Go112
[1]; listed as Go1 12
  Stability measured by DSF: 63.8 ± 0.1 °C
[1]; listed as mini-Go1
  Stability measured by DSF: 64 °C
[2]
  Stability in detergent measured by native DSF, 0.1% DDM: 32.6 ± 0.2 °C
  Stability in detergent measured by native DSF, 0.1% LMNG: 40.7 ± 0.1 °C
  Stability in detergent measured by native DSF, No detergent: 43.6 ± 0.2 °C

B3: Mini-Gi146: mini-Gi1 construct 46: N-terminus re-inserted, D249 back to Leu, G217D; SEQ ID NO:110 (protein)
chain: MGHHHHHHENLYFQGTLSAEDKAAVERSKMIDRNLREDGEKAAREVKLLLLGADNSGKSTIVKQMKIIHGGGGGGGGTTGIVETHFTFKDLHFKMFDVGGQRSERKKWIHCFEDVAAIIFCVDLSDYNRMHESMKLFDSICNNKWFTDTSIILFLNKKDLFEEKIKKSPLTICYQEYAGSNTYEEAAAYIQCQFEDLNKRKDTKEIYTHFTCATDTKNAQFIFDAVTDVIIKNNLKDCGLF
modifications: Mini-Gi146
[1]; DSF
  less stable than mini-Gs by: 17 °C
[1]
  Stability measured by DSF: 48 °C
[1]; listed as Gs/i1 46
  Stability measured by DSF: 47.8 ± 0.3 °C

B4: Gαs: purified non-lipidated Gαs subunit (protein, UniProt P63092 2-394, looked up)
Guanine nucleotide-binding …: GCLGNSKTEDQRNEEKAQREANKKIEKQLQKDKQVYRATHRLLLLGAGESGKSTIVKQMRILHVNGFNGEGGEEDPQAARSNSDGEKATKVQDIKNNLKEAIETIVAAMSNLVPPVELANPENQFRVDYILSVMNVPDFDFPPEFYEHAKALWEDEGVRACYERSNEYQLIDCAQYFLDKIDVIKQADYVPSDQDLLRCRVLTSGIFETKFQVDKVNFHMFDVGGQRDERRKWIQCFNDVTAIIFVVASSSYNMVIREDNQTNRLQEALNLFKSIWNNRWLRTISVILFLNKQDLLAEKVLAGKSKIEDYFPEFARYTTPEDATPEPGEDPRVTRAKYFIRDEFLRISTASGDGRHYCYPHFTCAVDTENIRRVFNDCRDIIQRMHLRQYELL
modifications: non-lipidated
notes: purified non-lipidated Gαs subunit
[1]
  Mini Gs basal Tm (GDP-bound state, DSF): 50.1 ± 0.1 (n = 3) ° C.

B5: Mini Gs162: mini Gs161 with A249D (protein)
chain: MGHHHHHHANKKIEKQLQKDKQVYRATHRLLLLGAGESGKSTIVKQMRILHGGGGGETKFQVDKVNFHMFDVGGQRDERRKWIQCFNDVTAIIFVVDSSSYNMVIREDNQTNRLQEALNLFKSIWNNRWLRTISVILFLNKQDLLAEKVLAGKSKIEDYFPEFARYTTPEDATPEPGEDPRVTRAKYFIRDEFLRISTASGDGRHYCYPHFTCAVDTENIRRVFNDCRDIIQRMHLRQYELL
modifications: MINI GS162
notes: mini Gs161 with A249D
[1]
  Mini Gs basal Tm (GDP-bound state, DSF): 60.6 ± 0.1 (n = 3) ° C.

B6: Mini Gs164: A249D and switch III deletion (protein)
chain: MGHHHHHHANKKIEKQLQKDKQVYRATHRLLLLGAGESGKSTIVKQMRILHGGGGGETKFQVDKVNFHMFDVGGQRDERRKWIQCFNDVTAIIFVVDSSSYNRLQEALNLFKSIWNNRWLRTISVILFLNKQDLLAEKVLAGKSKIEDYFPEFARYTTPEDATPEPGEDPRVTRAKYFIRDEFLRISTASGDGRHYCYPHFTCAVDTENIRRVFNDCRDIIQRMHLRQYELL
modifications: MINI GS164
notes: A249D and switch III deletion
[1]
  Mini Gs basal Tm (GDP-bound state, DSF): 66.5 ± 0.0 (n = 3) ° C.

B7: Mini Gs165: A249D-S252D-SIII (protein)
chain: B6 chain with S100D
modifications: MINI GS165
notes: A249D-S252D-SIII
[1]
  Mini Gs basal Tm (GDP-bound state, DSF): 68.7 ± 0.0 (n = 3) ° C.

B8: Mini Gs169: A249D-S252D-SIII- (mutation list truncated in table) (protein)
chain: B6 chain with S100D, L110D
modifications: MINI GS169
[1]
  Mini Gs basal Tm (GDP-bound state, DSF): 67.1 ± 0.0 (n = 3) ° C.

B9: Mini Gs183: G49D-E50N-A249D-S252D-SIII-L272D (protein)
chain: B6 chain with G36D, E37N, S100D, L110D
modifications: MINI GS183
notes: G49D-E50N-A249D-S252D-SIII-L272D
[1]
  Mini Gs basal Tm (GDP-bound state, DSF): 72.5 ± 0.0 (n = 3) ° C.

B10: Mini Gs199: mini Gs, Gly8 linker, switch III deleted, G49D E50N A249D S252D L272D (protein)
chain: MGHHHHHHANKKIEKQLQKDKQVYRATHRLLLLGADNSGKSTIVKQMRILHGGGGGGGGTSGIFETKFQVDKVNFHMFDVGGQRDERRKWIQCFNDVTAIIFVVDSSDYNRLQEALNDFKSIWNNRWLRTISVILFLNKQDLLAEKVLAGKSKIEDYFPEFARYTTPEDATPEPGEDPRVTRAKYFIRDEFLRISTASGDGRHYCYPHFTCAVDTENIRRVFNDCRDIIQRMHLRQYELL
modifications: MINI GS199
notes: mini Gs, Gly8 linker, switch III deleted, G49D E50N A249D S252D L272D
[1]
  Mini Gs basal Tm (GDP-bound state, DSF): 72.5 ± 0.0 (n = 3) ° C.

B11: Mini Gs254: mini Gs199 with M60A (protein)
chain: B10 chain with M47A
modifications: MINI GS254
notes: mini Gs199 with M60A
[1]
  Mini Gs basal Tm (GDP-bound state, DSF): 70.3 ± 0.0 (n = 3) ° C.

B12: Mini Gs350: mini Gs199 with L63Y (protein)
chain: B10 chain with L50Y
modifications: MINI GS350
notes: mini Gs199 with L63Y
[1]
  Mini Gs basal Tm (GDP-bound state, DSF): 70.7 ± 0.0 (n = 3) ° C.

B13: Mini Gs340: mini Gs199 with I372A (protein)
chain: B10 chain with I218A
modifications: MINI GS340
notes: mini Gs199 with I372A
[1]
  Mini Gs basal Tm (GDP-bound state, DSF): 66.6 ± 0.1 (n = 3) ° C.

B14: Mini GS303: mini Gs199 with V375I (protein)
chain: B10 chain with V221I
modifications: MINI GS303
notes: mini Gs199 with V375I
[1]
  Mini Gs basal Tm (GDP-bound state, DSF): 70.3 ± 0.0 (n = 3) ° C.

B15: Mini Gs352: mini Gs199 with L63Y-I372A (protein)
chain: B10 chain with L50Y, I218A
modifications: MINI GS352
notes: mini Gs199 with L63Y-I372A
[1]
  Mini Gs basal Tm (GDP-bound state, DSF): 64.7 ± 0.1 (n = 3) ° C.

B16: Mini Gs345: mini Gs199 with I372A-V375I; detergent stabilised construct (protein)
chain: B10 chain with I218A, V221I
modifications: MINI GS345
notes: mini Gs199 with I372A-V375I; detergent stabilised construct
[1]
  Mini Gs basal Tm (GDP-bound state, DSF): 65.4 ± 0.1 (n = 3) ° C.

B17: Mini Gs399: mini Gs393 with N-terminal residues 6-25 replaced and L272D reversed; binds Gβγ (protein)
chain: MGHHHHHHENLYFQGNSKTEDQRNEEKAQREANKKIEKQLQKDKQVYRATHRLLLLGADNSGKSTIVKQMRILHGGSGGSGGTSGIFETKFQVDKVNFHMFDVGGQRDERRKWIQCFNDVTAIIFVVDSSDYNRLQEALNLFKSIWNNRWLRTISVILFLNKQDLLAEKVLAGKSKIEDYFPEFARYTTPEDATPEPGEDPRVTRAKYFIRDEFLRISTASGDGRHYCYPHFTCAVDTENARRIFNDCRDIIQRMHLRQYELL
modifications: MINI GS399
[1]
  Stability measured by DSF: 71.6 ± 0.0 °C

B18: Mini-Gs/i148: mini-Gs/i1 chimera construct 48; SEQ ID NO:112 (protein)
chain: B17 chain with C248V, R249T, Q253I, R254K, H256N, Q259D, Y260C, E261G, L263F
modifications: Mini-Gs/i148
[1]
  Stability measured by DSF: 72.1 ± 0.1 °C

B19: mini-Gs/o_16: mini-Gs/o1 chimera construct 16; SEQ ID NO:139 (protein)
chain: B17 chain with C248V, R249T, Q253I, R254A, H256N, Q259G, Y260C, E261G, L263Y
modifications: miniGs/o_16
[1]
  Stability measured by DSF: 69.0 ± 0.1 °C
